Experimental data taken from patent US20160159885A1.

Columns and labels:
[1] = target: thermolysin (Bacillus thermoproteolyticus) (UniProt P00800); test: cell-based or functional assay
pseudolysin = pseudolysin (UniProt P14756); test: cell-based or functional assay
UniProt P14756, sequence (P14756 198-498 limits assumed): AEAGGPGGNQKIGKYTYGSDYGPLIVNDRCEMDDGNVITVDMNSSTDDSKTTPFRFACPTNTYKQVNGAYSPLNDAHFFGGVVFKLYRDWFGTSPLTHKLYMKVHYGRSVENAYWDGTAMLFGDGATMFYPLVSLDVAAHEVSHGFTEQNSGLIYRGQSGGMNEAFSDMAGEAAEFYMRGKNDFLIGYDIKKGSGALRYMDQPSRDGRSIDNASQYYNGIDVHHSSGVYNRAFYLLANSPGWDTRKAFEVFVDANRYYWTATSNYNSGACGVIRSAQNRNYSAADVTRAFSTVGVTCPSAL

UniProt P00800, sequence (P00800 233-548 limits assumed): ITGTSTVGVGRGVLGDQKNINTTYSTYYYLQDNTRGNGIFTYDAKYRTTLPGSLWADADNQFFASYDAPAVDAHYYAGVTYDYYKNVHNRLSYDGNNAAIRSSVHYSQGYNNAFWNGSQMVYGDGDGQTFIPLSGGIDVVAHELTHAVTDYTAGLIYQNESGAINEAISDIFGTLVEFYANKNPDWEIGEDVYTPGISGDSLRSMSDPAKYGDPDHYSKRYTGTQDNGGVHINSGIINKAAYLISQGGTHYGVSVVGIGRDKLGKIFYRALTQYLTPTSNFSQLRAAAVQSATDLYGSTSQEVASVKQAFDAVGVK

wtIMPIα (wild-type insect metalloproteinase inhibitor IMPIα) (from UniProt P82176 20-88)
20.7 nM: IC50 wt PLN; column Pos37 NnC (pseudolysin)
22.8 nM: IC50 wt PLN; column Pos38 InG (pseudolysin)
22.5 nM: IC50 wt PLN; column Pos39 RnY (pseudolysin)
20.1 nM: IC50 wt PLN; column Pos39 RnL (pseudolysin)
20.8 nM: IC50 wt PLN; column Pos37 NnL (pseudolysin) | IC50 wt PLN; column Pos37 NnP (pseudolysin)
20.5 nM: IC50 wt PLN; column Pos39 RnF (pseudolysin)
12.5 nM: IC50 wt TLN; column Pos36 InD [1] | IC50 wt TLN; column Pos36 InE [1] | IC50 wt TLN; column Pos36 InK [1] | IC50 wt TLN; column Pos36 InW [1] | IC50 wt TLN; column Pos37 NnS [1] | IC50 wt TLN; column Pos37 NnY [1] | IC50 wt TLN; column Pos38 InG [1] | IC50 wt TLN; column Pos38 InH [1] | IC50 wt TLN; column Pos38 InM [1] | IC50 wt TLN; column Pos39 RnA [1] | IC50 wt TLN; column Pos39 RnF [1] | IC50 wt TLN; column Pos39 RnI [1] | IC50 wt TLN; column Pos39 RnK [1] | IC50 wt TLN; column Pos39 RnV [1] | IC50 wt TLN; wt (avg), Pos36 block [1] | IC50 wt TLN; wt (avg), Pos38 block [1] | IC50 wt TLN; wt (avg), Pos39 block [1]
12 nM: IC50 wt TLN; column Pos37 NnP [1]
12.8 nM: IC50 wt TLN; column Pos37 NnH [1]
21.5 nM: IC50 wt PLN; column Pos37 NnS (pseudolysin) | IC50 wt PLN; column Pos37 NnW (pseudolysin) | IC50 wt PLN; column Pos37 NnY (pseudolysin) | IC50 wt PLN; column Pos38 InV (pseudolysin)
12.4 nM: IC50 wt TLN; column Pos36 InA [1] | IC50 wt TLN; column Pos36 InH [1] | IC50 wt TLN; column Pos36 InM [1] | IC50 wt TLN; column Pos36 InT [1] | IC50 wt TLN; column Pos38 InW [1] | IC50 wt TLN; column Pos39 RnL [1] | IC50 wt TLN; column Pos39 RnW [1] | IC50 wt TLN; wt (avg), Pos37 block [1]
12.1 nM: IC50 wt TLN; column Pos37 NnD [1]
20.9 nM: IC50 wt PLN; column Pos36 InD (pseudolysin)
30.8 nM: IC50 wt PLN; column Pos37 NnM (pseudolysin)
21.6 nM: IC50 wt PLN; column Pos36 InE (pseudolysin) | IC50 wt PLN; column Pos36 InG (pseudolysin)
21.9 nM: IC50 wt PLN; column Pos35 InF (pseudolysin) | IC50 wt PLN; column Pos35 InL (pseudolysin) | IC50 wt PLN; column Pos35 InM (pseudolysin) | IC50 wt PLN; column Pos35 InY (pseudolysin) | IC50 wt PLN; column Pos36 InQ (pseudolysin) | IC50 wt PLN; column Pos36 InT (pseudolysin) | IC50 wt PLN; column Pos37 NnA (pseudolysin) | IC50 wt PLN; column Pos37 NnE (pseudolysin) | IC50 wt PLN; column Pos39 RnT (pseudolysin) | IC50 wt PLN; wt (avg), Pos36 block (pseudolysin)
21.8 nM: IC50 wt PLN; column Pos35 InA (pseudolysin) | IC50 wt PLN; column Pos37 NnG (pseudolysin) | IC50 wt PLN; column Pos39 RnV (pseudolysin) | IC50 wt PLN; wt (avg), Pos38 block (pseudolysin)
21.4 nM: IC50 wt PLN; column Pos38 InM (pseudolysin) | IC50 wt PLN; wt (avg), Pos39 block (pseudolysin)
22 nM: IC50 wt PLN; column Pos36 InA (pseudolysin) | IC50 wt PLN; column Pos36 InH (pseudolysin) | IC50 wt PLN; column Pos36 InK (pseudolysin) | IC50 wt PLN; column Pos36 InM (pseudolysin) | IC50 wt PLN; column Pos39 RnK (pseudolysin) | IC50 wt PLN; wt (avg), Pos35 block (pseudolysin)
21.2 nM: IC50 wt PLN; column Pos37 NnH (pseudolysin) | IC50 wt PLN; column Pos37 NnV (pseudolysin) | IC50 wt PLN; column Pos39 RnI (pseudolysin)
23.1 nM: IC50 wt PLN; column Pos38 InH (pseudolysin)
12.6 nM: IC50 wt TLN; column Pos35 InA [1] | IC50 wt TLN; column Pos35 InF [1] | IC50 wt TLN; column Pos35 InL [1] | IC50 wt TLN; column Pos35 InM [1] | IC50 wt TLN; column Pos35 InV [1] | IC50 wt TLN; column Pos35 InW [1] | IC50 wt TLN; column Pos35 InY [1] | IC50 wt TLN; column Pos36 InF [1] | IC50 wt TLN; column Pos36 InG [1] | IC50 wt TLN; column Pos36 InQ [1] | IC50 wt TLN; column Pos36 InR [1] | IC50 wt TLN; column Pos36 InV [1] | IC50 wt TLN; column Pos36 InY [1] | IC50 wt TLN; column Pos37 NnA [1] | IC50 wt TLN; column Pos37 NnE [1] | IC50 wt TLN; column Pos37 NnG [1] | IC50 wt TLN; column Pos37 NnQ [1] | IC50 wt TLN; column Pos38 InF [1] | IC50 wt TLN; column Pos38 InL [1] | IC50 wt TLN; column Pos38 InQ [1] | IC50 wt TLN; column Pos38 InV [1] | IC50 wt TLN; column Pos38 InY [1] | IC50 wt TLN; column Pos39 RnM [1] | IC50 wt TLN; column Pos39 RnQ [1] | IC50 wt TLN; wt (avg), Pos35 block [1]
22.1 nM: IC50 wt PLN; column Pos35 InW (pseudolysin) | IC50 wt PLN; column Pos36 InV (pseudolysin) | IC50 wt PLN; column Pos36 InW (pseudolysin) | IC50 wt PLN; column Pos39 RnA (pseudolysin) | IC50 wt PLN; column Pos39 RnM (pseudolysin) | IC50 wt PLN; column Pos39 RnQ (pseudolysin)
11.7 nM: IC50 wt TLN; column Pos37 NnM [1]
20.3 nM: IC50 wt PLN; column Pos39 RnG (pseudolysin)
12.7 nM: IC50 wt TLN; column Pos37 NnC [1] | IC50 wt TLN; column Pos37 NnV [1] | IC50 wt TLN; column Pos37 NnW [1] | IC50 wt TLN; column Pos39 RnG [1]
22.3 nM: IC50 wt PLN; column Pos36 InF (pseudolysin) | IC50 wt PLN; column Pos36 InR (pseudolysin)
21.7 nM: IC50 wt PLN; column Pos38 InL (pseudolysin)
21.1 nM: IC50 wt PLN; column Pos38 InF (pseudolysin) | IC50 wt PLN; column Pos38 InW (pseudolysin) | IC50 wt PLN; column Pos38 InY (pseudolysin)
22.2 nM: IC50 wt PLN; column Pos35 InV (pseudolysin) | IC50 wt PLN; column Pos36 InY (pseudolysin) | IC50 wt PLN; column Pos37 NnQ (pseudolysin) | IC50 wt PLN; column Pos38 InQ (pseudolysin) | IC50 wt PLN; wt (avg), Pos37 block (pseudolysin)
19.9 nM: IC50 wt PLN; column Pos39 RnW (pseudolysin)
22.6 nM: IC50 wt PLN; column Pos37 NnD (pseudolysin)
11.1 nM: IC50 wt TLN; column Pos37 NnL [1]
